Test results: patent US20260146107A1 (ALLIGATOR BIOSCIENCE, published 2026)

Key:
[1] = target: human CD40 expressed on cells (CD40 reporter cells, HEK Blue CD40L cells, primary B cells, tumour APCs) (human, UniProt P25942 21-277); test: cell-based or functional assay
[2] = target: T1, biotinylated human CEACAM5-His (Acro Biosystems #CE5-H82E0) (human, UniProt P06731 35-685, biotinylated (site not stated)); test: Octet BLI, captured CEACAM5-biotin, bsAb in solution, 1:1 fit
T1 construct: also called CEACAM5-biotin; captured human CEACAM5-biotin; not shown: His tag
T1 sequence (looked up): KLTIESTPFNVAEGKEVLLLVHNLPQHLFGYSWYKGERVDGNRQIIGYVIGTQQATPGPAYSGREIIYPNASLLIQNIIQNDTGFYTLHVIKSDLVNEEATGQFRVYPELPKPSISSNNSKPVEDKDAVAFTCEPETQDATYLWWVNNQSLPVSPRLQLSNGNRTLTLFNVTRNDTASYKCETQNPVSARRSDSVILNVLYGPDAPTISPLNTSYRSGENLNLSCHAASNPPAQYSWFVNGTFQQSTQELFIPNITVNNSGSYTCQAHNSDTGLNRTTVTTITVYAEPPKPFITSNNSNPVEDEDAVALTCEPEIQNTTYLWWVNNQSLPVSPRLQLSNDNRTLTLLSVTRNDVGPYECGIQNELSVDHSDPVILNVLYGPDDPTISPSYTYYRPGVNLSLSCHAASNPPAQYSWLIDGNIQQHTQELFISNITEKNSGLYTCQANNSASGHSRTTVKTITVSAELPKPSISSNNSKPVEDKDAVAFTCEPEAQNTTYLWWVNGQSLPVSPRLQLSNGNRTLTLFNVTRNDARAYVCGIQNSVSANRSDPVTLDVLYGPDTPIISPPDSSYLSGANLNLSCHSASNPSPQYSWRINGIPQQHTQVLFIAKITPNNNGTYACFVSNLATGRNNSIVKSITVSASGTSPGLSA
Protocol: Kinetic measurements were performed in the Octet RED96 platform using several different setups. […] Monomeric human CD40-His-Avi tag (Acro Biosystems #CD0-H5228), monomeric Human CEACAM5-His (R&D Systems #4128-CM-050) or monomeric Cynomolgus CEACAM5-His (Sino Biological #90891-C08H) were ½ serially diluted in 1× kinetic buffer (Sartorius) starting at 500 nM or 100 nM. […] Binding kinetics was studied in 1× kinetic buffer where association was allowed for 100 sec, 300 sec or 600 sec followed by dissociation for 100 sec, 300 sec or 3600 sec. Sensor tips were regenerated with 10 mM Glycine pH 1.7. Data generated were referenced by subtracting blank or parallel buffer blank, the baseline was aligned to the y-axis, inter-step correction by alignment against dissociation was performed and the data was smoothed by Savitzky-Golay filter in the data analysis software (v9.0.0.14). The processed data was fitted using a 1:1 Langmuir binding model with R² or X² as a measurement of fitting accuracy.
Association was measured for 100 sec and dissociation measured for 100 sec.

[3] = target: T2, human CEACAM5 expressed on cells (CHO-CEACAM5 transfectants; MKN45 and LS174T tumour cells) (human, UniProt P06731 35-685); test: flow cytometry on CHO-CEACAM5 cells, fluorochrome-conjugated anti-human IgG, MFI
T2 construct: whole, on cells; also called CEACAM5 on cells; hCEA
T2 sequence (looked up): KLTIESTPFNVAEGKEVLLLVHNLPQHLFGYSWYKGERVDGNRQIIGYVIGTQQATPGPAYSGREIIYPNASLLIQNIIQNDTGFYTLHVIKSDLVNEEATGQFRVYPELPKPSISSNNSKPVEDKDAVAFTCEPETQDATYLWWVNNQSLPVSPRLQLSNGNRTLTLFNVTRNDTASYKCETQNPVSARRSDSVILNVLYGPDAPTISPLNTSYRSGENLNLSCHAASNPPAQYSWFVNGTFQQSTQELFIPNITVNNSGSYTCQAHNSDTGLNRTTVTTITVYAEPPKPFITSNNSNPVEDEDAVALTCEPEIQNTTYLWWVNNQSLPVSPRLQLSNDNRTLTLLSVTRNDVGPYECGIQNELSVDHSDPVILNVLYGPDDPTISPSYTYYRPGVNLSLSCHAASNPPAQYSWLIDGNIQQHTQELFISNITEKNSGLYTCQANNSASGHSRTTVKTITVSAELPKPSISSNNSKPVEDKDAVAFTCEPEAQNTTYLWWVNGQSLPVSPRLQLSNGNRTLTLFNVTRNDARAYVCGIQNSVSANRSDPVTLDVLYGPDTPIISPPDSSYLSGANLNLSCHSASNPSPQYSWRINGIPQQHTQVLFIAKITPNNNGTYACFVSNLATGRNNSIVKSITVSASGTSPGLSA
Text: (§1) The human CEACAM5 and CEACAM1 genes were cloned into pcDNA3.1, and the vector was subsequently stably transfected into CHO cells. […] Binding of the antibodies was detected using fluorochrome-conjugated anti-human IgG and analyzed using flow cytometry.

[4] = target: T3, human CEACAM1 expressed on CHO cells (human, UniProt P13688 35-526); test: flow cytometry on CHO-CEACAM1 cells, fluorochrome-conjugated anti-human IgG, MFI
T3 construct: whole, on cells; also called CHO-CEACAM1; CEACAM1 on cells
T3 sequence (looked up): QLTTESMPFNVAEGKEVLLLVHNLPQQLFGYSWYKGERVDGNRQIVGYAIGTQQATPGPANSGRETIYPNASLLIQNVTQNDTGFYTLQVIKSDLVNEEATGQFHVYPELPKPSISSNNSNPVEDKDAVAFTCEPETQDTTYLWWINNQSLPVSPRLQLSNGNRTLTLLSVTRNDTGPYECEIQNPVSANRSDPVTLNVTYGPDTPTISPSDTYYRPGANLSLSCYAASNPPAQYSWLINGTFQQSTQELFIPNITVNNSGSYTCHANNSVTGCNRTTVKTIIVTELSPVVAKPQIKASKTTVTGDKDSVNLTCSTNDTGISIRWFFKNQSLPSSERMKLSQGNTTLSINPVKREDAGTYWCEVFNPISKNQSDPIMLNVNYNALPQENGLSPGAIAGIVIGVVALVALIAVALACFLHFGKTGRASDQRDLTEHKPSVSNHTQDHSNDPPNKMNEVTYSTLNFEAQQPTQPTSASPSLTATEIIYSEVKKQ
Text: as §1

[5] = target: T4, human CEACAM5, recombinant (R&D Systems #4128-CM-050) (human, UniProt P06731 35-685); test: ELISA, antigen coated at 0.5 µg/mL, bsAb titrated, anti-human kappa-HRP, luminescence
T4 construct: Bought; coated in ELISA and used as monomeric analyte in Octet; also called hCEACAM-5; Human CEACAM5-His; not shown: His tag
T4 sequence (looked up): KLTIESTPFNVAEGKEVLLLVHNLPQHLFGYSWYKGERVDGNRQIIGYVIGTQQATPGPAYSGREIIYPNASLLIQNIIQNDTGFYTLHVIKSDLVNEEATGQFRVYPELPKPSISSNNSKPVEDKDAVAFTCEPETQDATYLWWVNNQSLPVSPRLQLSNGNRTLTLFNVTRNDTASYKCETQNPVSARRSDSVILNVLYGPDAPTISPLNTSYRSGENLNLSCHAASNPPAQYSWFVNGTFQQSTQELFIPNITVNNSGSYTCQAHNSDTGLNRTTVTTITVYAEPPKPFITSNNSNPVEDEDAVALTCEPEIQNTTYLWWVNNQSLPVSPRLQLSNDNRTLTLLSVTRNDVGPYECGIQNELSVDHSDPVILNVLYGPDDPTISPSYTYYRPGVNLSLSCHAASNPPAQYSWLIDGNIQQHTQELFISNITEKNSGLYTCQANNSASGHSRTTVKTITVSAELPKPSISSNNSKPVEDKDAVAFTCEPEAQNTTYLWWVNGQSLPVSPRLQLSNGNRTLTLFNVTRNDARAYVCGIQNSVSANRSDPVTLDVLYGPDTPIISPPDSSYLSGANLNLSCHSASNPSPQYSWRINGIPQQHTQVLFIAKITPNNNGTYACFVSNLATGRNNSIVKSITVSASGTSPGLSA

[6] = target: T5, human CEACAM6, recombinant (R&D Systems #3934-CM-050) (human, UniProt P40199 35-320); test: as above
T5 construct: also called hCEACAM-6
T5 sequence (looked up): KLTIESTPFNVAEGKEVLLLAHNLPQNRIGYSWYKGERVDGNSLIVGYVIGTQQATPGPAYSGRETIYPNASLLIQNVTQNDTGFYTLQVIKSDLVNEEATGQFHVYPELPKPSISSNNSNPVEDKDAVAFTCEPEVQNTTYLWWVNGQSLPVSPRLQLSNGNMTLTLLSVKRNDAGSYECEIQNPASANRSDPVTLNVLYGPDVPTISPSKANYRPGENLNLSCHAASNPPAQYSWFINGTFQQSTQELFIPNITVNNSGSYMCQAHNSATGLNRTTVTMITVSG

[7] = target: T6, CEACAM-8, recombinant (R&D Systems #9639-CM-050) (UniProt P31997 35-320); test: as above
T6 sequence (looked up): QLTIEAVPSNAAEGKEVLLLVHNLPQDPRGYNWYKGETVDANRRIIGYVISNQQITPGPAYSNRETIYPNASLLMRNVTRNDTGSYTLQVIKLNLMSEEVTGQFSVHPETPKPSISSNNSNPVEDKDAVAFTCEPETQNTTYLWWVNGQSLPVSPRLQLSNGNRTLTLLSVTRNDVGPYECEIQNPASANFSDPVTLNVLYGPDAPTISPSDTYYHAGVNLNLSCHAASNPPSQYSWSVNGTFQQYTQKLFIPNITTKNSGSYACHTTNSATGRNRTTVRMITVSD

[8] = target: T4, human CEACAM5, recombinant (R&D Systems …); test: dual-target ELISA: hCEACAM-5 coated, bsAb titrated, detected with biotinylated hCD40-muIg and streptavidin-HRP, luminescence; signal needs both targets bound

Sequence of human CD40 expressed on cells (CD40 reporter cells, HEK Blue CD40L cells, primary B cells, tumour APCs) (P25942 21-277): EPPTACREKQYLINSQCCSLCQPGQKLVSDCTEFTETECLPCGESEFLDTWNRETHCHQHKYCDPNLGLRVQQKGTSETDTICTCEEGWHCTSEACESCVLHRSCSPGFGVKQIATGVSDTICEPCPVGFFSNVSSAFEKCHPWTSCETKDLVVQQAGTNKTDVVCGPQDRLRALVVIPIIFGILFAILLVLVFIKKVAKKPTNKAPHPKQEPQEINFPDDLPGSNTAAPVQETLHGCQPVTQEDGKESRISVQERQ

EC50 of SEAP release, HEK Blue CD40L reporter cells, bsAb crosslinked to CHO-CEACAM5 cells, 0 Raji sink cells/well [1]: 0.03 nM
EC50 of SEAP release, same assay, 10 000 Raji sink cells/well [1]: 0.06 nM
EC50 of SEAP release, same assay, 30 000 Raji sink cells/well [1]: 0.13 nM
EC50 of SEAP release, same assay, 90 000 Raji sink cells/well [1]: 0.36 nM
Kd [2]: < 1 pM
koff [2]: < 1e-07 s⁻¹
kon [2]: 47000 M⁻¹ s⁻¹
EC50 (read off the curve) [3]: ~3 nM
binding result [4]: no binding (tested: about 400 nM)
EC50 (read off the curve) [5]: ~0.5 nM
binding result [6]: no binding (tested: 100 nM)
binding result [7]: no binding (tested: 100 nM)
EC50 (read off the curve) [8]: ~0.6 nM
B1: Multi41 (bispecific antibody)
heavy 1: not shown
light: DIQMTQSPSSLSASVGDRVTITCRASQSISSYLNWYQEKPGKAPKLLIYAASSLQSGVPSRFSGSGSGTDFTLTISSLQPEDFATYYCQQWRSHLFTFGQGTKLEIKRTVAAPSVFIFPPSDEQLKSGTASVVCYLNNFYPREAKVQWKVDNALQSGNSQESVTEQDSKDSTYSLWSTLTLSKADYEKHKVYACEVTHQGLSSPVTKSFNRGEC
heavy 2: EVQLLESGGGLVQPGGSLRLSCAASGFTFSTYGMHWVREAPGKGLEWLSYISGGSSYIFYADSVKGRFTISRDNSKNTLYLQMNSLRAEDTAVYYCARILRGGSGMDLWGQGTLVTVSSASTKGPSVFPLAPSSKSTSGGTAALGCLVKDYFPEPVTVSWNSGALTSGVHTFPAVLQSSGLYSLTSVVEVPSSSLGTQTYICNVNHKPSNTKVDKKVEPKSC
notes: Optimised RUBY format, CEACAM5xCD40; copies: 2 + 2 + 2
